In patent publication US7897569B2, “Use of HMGB fragments as anti-inflammatory agents” (The Feinstein Institute for Medical Research, priority 2001, dated 2011):

B1: A box: Human HMGB1 mutant containing only the A box, SEQ ID NO:21 (A box SEQ ID NO:22) (protein)
chain: MGKGDPKKPTGKMSSYAFFVQTCREEHKKKHPDASVNFSEFSKKCSERWKTMSAKEKGKFEDMAKADKARYEREMKTYIPPKGET
B2: B box: Human HMGB1 mutant containing only the B box, SEQ ID NO:20 (protein)
chain: FKDPNAPKRLPSAFFLFCSEYRPKIKGEHPGLSIGDVAKKLGEMWNNTAADDKQPYEKKAAKLKEKYEKDIAAY

Columns and labels:
HMGB1 = assay: A box inhibition of HMGB1 induced TNF release from RAW 264.7 cells (L929 assay); format: cell-based; settings: HMGB1 1 μg/ml, A box 0-25 μg/ml, 16 hours
Protocol: Weak agonists are by definition antagonists. […] This study was carried out as follows. Sub-confluent RAW 264.7 cells in 24-well dishes were treated with HMGB1 (1 μg/ml) and 0, 5, 10, or 25 μg/ml of A box for 16 hours in Opti-MEM I medium in the presence of polymyxin B (100 units/ml). The TNF-stimulating activity (assayed using the L929 cytotoxicity assay described herein) in the sample receiving no A box was expressed as 100%, and the inhibition by A box was expressed as percent of HMGB1 alone. […] Data in FIG. 4A are presented as mean±SD (n=2-3 independent experiments).

RAW 264.7 cells [1] = assay: IL-1β release from RAW 264.7 cells (ELISA); format: cell-based, murine; settings: B box 1 μg/ml or 10 μg/ml, 8 hours
Protocol: (§1) To further examine the effect of HMGB1 B box on cytokine production, varying amounts of HMGB1 B box were evaluated for the effects on TNF, IL-1 B, and IL-6 production in murine macrophage-like RAW 264.7 cells. Conditioned media were harvested and measured for TNF, IL-1β and IL-6 levels. TNF levels were measured as described herein, and IL-1β and IL-6 levels were measured using the mouse IL-1β and IL-6 enzyme-linked immunosorbent assay (ELISA) kits (R&D System Inc., Minneapolis, Minn.) and N>5 for all experiments.

RAW 264.7 cells [2] = assay: IL-6 release from RAW 264.7 cells (ELISA); format: cell-based, murine; settings: B box 0-10 μg/ml, 8 hours
Protocol: as §1

RAW 264.7 cells [3] = assay: TNF mRNA expression in RAW 264.7 cells (RNase protection assay); format: cell-based, murine; settings: 10 μg/ml
Protocol: The kinetics of B box-induced TNF release was also examined. TNF release and TNF mRNA expression was measured in RAW 264.7 cells induced by B box polypeptide or GST tag polypeptide only used as a control (vector) (10 μg/ml) for 0 to 48 hours. Supernatants were analyzed for TNF protein levels by an L929 cytotoxicity assay (N=3-5) as described herein. For mRNA measurement, cells were plated in 100 mm plate and treated in Opti-MEM I medium containing B box polypeptide or the vector alone for 0, 4, 8, or 24 hours, as indicated in FIG. 2D. The vector only sample was assayed at the 4 hour time point. Cells were scraped off the plate and total RNA was isolated by RNAzol B method in accordance with the manufacturer's instructions (Tel-Test “B”, Inc., Friendswood, Tex.). TNF (287 bp) was measured by RNase protection assay (Ambion, Austin, Tex.). Equal loading and the integrity of RNA was verified by ethidium bromide staining of the RNA sample on agarose-formaldehyde gel. […] TNF mRNA expression was maximal at 4 hours and decreased at 8 and 24 hours. […] A similar study was carried out measuring TNF protein released from RAW 264.7 cells 0, 4, 8, 24, 32 or 48 hours after administration of B box or vector only (GST tag), using the L929 cytotoxicity assay described herein. […] Data are representative of three separate experiments.

C3H/HeJ mice = assay: Lethality and histology in C3H/HeJ mice; format: in vivo
[4] = C3H/HeJ mice, 8 hours after administration

Row | Molecule | apparent EC50 for inhibition of HMGB1 induced TNF release (HMGB1) | IL-1β release (RAW 264.7 cells [1]) | IL-6 release, dose dependence (RAW 264.7 cells [2]) | time of maximal TNF mRNA expression (RAW 264.7 cells [3]) [h] | TNF mRNA expression (RAW 264.7 cells [3]; 0-24 hours (vector at 4 hours)) | lethality (C3H/HeJ mice; C3H/HeJ mice (do not respond to endotoxin)) | histology of heart (C3H/HeJ mice; [4]) | histology of liver (C3H/HeJ mice; [4]) | histology of lung and kidney (C3H/HeJ mice; [4])
1 | B1 | approximately 7.5 μg/ml |  |  |  |  |  |  |  | 
2 | B2 |  | increased release of IL-1β | increased with increased amounts of B box | 4 | increased significantly | lethal | evidence of ischemia with loss of cross striation | mild acute inflammatory responses | no abnormal morphologic changes
